Experiment [1] addresses p62 LIR (Homo sapiens) (UniProt Q13501). As to conditions: cited from earlier work.
For experiment [2], the target named is GST fusion of human OPTN (aa 2-311), Q96CV9-1. The experiment can be described thus: phage ELISA. The following applies: Background correction to BSA signal was applied; read off a plot.

Chain of GATE-16 (P60520 1-116): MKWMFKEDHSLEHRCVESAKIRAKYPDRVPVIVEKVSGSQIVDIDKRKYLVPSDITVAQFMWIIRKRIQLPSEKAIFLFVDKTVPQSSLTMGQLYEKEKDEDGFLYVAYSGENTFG

As to GATE-16 (from UniProt P60520), the Kd in experiment [1] is 5.2 µM.
Take “LC3Bwt displayed on phage (from UniProt Q9GZQ8) F11L; R14L; R15N; Q19L; E22D; D23N; [26-28]I (column not resolved, see notes); K53I; K55G”: the response in experiment [2] came out at 0.91 OD 450 nm.
